Source: publication PMC12884772, “Macrophagic Sclerostin Loop2‐ApoER2 Interaction Required by Sclerostin for Cardiovascular Protective Action” (Advanced Science, 2025)

Molecular target: T1, ApoER2 (Mus musculus, UniProt Q924X6)
T1 construct: FLAG; expressed in transfected cells; host or cells: RAW264.7
T1 sequence (Q924X6 29-996): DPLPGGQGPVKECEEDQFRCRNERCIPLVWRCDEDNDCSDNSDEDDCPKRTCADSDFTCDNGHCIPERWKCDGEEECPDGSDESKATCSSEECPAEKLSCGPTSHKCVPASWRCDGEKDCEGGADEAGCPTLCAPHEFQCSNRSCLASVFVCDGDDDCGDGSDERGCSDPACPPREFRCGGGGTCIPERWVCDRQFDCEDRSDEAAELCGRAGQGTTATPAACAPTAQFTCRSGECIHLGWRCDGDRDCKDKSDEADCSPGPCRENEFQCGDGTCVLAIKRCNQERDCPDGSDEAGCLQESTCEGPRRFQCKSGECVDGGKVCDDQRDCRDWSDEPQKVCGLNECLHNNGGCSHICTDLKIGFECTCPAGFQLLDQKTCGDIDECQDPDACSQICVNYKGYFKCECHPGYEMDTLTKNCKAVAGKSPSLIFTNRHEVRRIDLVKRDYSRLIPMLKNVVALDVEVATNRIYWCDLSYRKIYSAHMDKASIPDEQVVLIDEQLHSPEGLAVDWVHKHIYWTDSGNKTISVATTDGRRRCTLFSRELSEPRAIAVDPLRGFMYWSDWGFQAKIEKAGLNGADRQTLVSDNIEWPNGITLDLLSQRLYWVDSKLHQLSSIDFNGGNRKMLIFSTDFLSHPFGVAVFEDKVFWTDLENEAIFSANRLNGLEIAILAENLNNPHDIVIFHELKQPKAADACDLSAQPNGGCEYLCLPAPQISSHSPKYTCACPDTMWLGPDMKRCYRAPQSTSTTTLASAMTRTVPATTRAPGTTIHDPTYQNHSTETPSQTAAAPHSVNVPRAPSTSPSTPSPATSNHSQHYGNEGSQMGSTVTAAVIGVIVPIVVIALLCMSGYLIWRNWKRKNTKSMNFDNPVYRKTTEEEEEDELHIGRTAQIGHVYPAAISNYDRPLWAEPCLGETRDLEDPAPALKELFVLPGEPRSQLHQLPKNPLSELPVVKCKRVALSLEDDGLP
Assay: Pull‐down assay of ApoER2 by His‐tagged full‐length/truncated/mutated sclerostin in macrophages (RAW264.7)
Assay type: binding
Conditions: RAW264.7 lysate, Ni‐NTA beads, western blot; Figure 6A, S6A
Procedure: The interaction of full‐length (FL)/truncated ApoER2 with full‐length (FL) /truncated sclerostin in macrophages (RAW264.7) were determined by pull‐down assay and Co‐IP assay. The binding affinity of ApoER2 to FL sclerostin and sclerostin loop2 were determined by biolayer interferometry (BLI) analysis. Moreover, the binding of sclerostin to ApoER2 on macrophages (RAW264.7) was examined by confocal microscopy.
The interaction residues within ApoER2 to sclerostin loop2 were determined in combination with pull‐down assay and BLI analysis. Based on the interaction residues within ApoER2 to sclerostin loop2, a series of Lrp8 mutations were developed. Based on the interaction residues within sclerostin loop2 to ApoER2, a series of sost mutations were developed.
Cell lysates were collected using RIPA Lysis and Extraction Buffer (Thermo Scientific, 89 901) supplemented with Protease Inhibitor Cocktail (CST, 5871) and centrifuged at 4000 rpm for 30 min at 4 °C, and replaced with binding buffer (PBS buffer, 20 mM imidazole, pH 8.0). […]
The eluted liquid from pull‐down assay was then mixed with SDS‐PAGE loading buffer and boiled for 10 min at 95 °C to make samples. […] The ECL solution (BIO‐RAD, 1 705 061) was used to visualize detected proteins. […]

Which “Pull‐down of FLAG‐ApoER2 by the His‐tagged protein/peptide” value does the source give for “sclerostin: recombinant human/mouse full‐length sclerostin protein” here?
Its value is “pulled”.
